First the molecules themselves.
B1: CCL7(Y13A) (ligand)
chain: not shown
notes: source: E. coli Rosetta-gami 2 (DE3), purified (His-Trap, SEC, RP-HPLC)
B2: CCL11(F11A) (ligand)
chain: not shown
notes: also called CC + 1 residue-mutated CCL11; source: E. coli Rosetta-gami 2 (DE3), purified (His-Trap, SEC, RP-HPLC)
B3: CCL18 (ligand, human, UniProt P55774 21-89, looked up)
chain: AQVGTNKELCCLVYTSWQIPQKFIVDYSETSPQCPKPGVILLTKRGRQICADPNKKWVQKYISDLKLNA
B4: CCL5 (ligand, human, UniProt P13501 24-91, looked up)
chain: SPYSSDTTPCCFAYIARPLPRAHIKEYFYTSGKCSNPAVVFVTRKNRQVCANPEKKWVREYINSLEMS
B5: CCL26 (ligand, human, UniProt Q9Y258 24-94, looked up)
chain: TRGSDISKTCCFQYSHKPLPWTWVRSYEFTSNSCSQRAVIFTTKRGKKVCTHPRKKWVQKYISLLKTPKQL
B6: CCL17 (ligand, human, UniProt Q92583 24-94, looked up)
chain: ARGTNVGRECCLEYFKGAIPLRKLKTWYQTSEDCSRDAIVFVTVQGRAICSDPNNKRVKNAVKYLQSLERS
notes: as for B1
B7: CCL11 (ligand)
chain: not shown
notes: as for B1
B8: CCL22 (ligand, human, UniProt O00626 25-93, looked up)
chain: GPYGANMEDSVCCRDYVRYRLPLRVVKHFYWTSDSCPRPGVVLLTFRDKEICADPRVPWVKMILNKLSQ
B9: CCL7 (ligand)
chain: not shown
notes: as for B1
B10: CCL1 (ligand, human, UniProt P22362 24-96, looked up)
chain: KSMQVPFSRCCFSFAEQEIPLRAILCYRNTSSICSNEGLIFKLKRGKEACALDTVGWVQRHRKMLRHCPSKRK
B11: CCL8 (ligand, human, UniProt P80075 24-99, looked up)
chain: QPDSVSIPITCCFNVINRKIPIQRLESYTRITNIQCPKEAVIFKTKRGKEVCADPKERWVRDSMKHLDQIFQNLKP
B12: CCL3 (ligand, human, UniProt P10147 24-92, looked up)
chain: SLAADTPTACCFSYTSRQIPQNFIADYFETSSQCSKPGVIFLTKRSRQVCADPSEEWVQKYVSDLELSA
B13: CCL24 (ligand, human, UniProt O00175 27-119, looked up)
chain: VVIPSPCCMFFVSKRIPENRVVSYQLSSRSTCLKAGVIFTTKKGQQFCGDPKQEWVQRYMKNLDAKQKKASPRARAVAVKGPVQRYPGNQTTC

Where “and” joins values, the source holds several entries; their conditions need not be identical. Equal values may be shown once.

For one assay, the target named is T1, EVA-AAM1001, C-terminally Avi-tagged and biotinylated (A. americanum, biotin on the AVI tag).
T1 chain: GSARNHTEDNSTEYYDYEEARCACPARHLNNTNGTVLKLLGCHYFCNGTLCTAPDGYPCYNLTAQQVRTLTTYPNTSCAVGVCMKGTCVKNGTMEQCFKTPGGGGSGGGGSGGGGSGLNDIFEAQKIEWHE
Briefly: SPR. Conditions: both partners purified.
In the case of B1, the “fold increase in affinity over wild type CCL7” value was around 10000 fold.

With B2, the “fold increase in affinity over wild type CCL11” value was around 200 fold.

In another assay the target is T2, EVA-4 (UniProt P0C8E9 24-127).
T2 sequence (looked up): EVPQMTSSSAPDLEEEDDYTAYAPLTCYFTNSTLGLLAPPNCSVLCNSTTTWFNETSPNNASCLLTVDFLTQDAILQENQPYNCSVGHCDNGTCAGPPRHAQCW
Description: not stated; Kd of EVA-4 for human chemokines, three readings (source data of Supplementary Fig. 7); method and conditions not told for EVA-4.
Settings: not given
In general, Kd refers to the concentration at which binding is half-saturated. A higher Kd goes with a looser complex. B3: the Kd is 0.346 nM and 0.451 nM and 0.45 nM.

For the molecule B4, the Kd was 6.07 nM and 5.93 nM and 6.16 nM.

With B5, the Kd was 56.5 nM and 69.6 nM and 86.6 nM.

In the case of B6, the Kd was 282 nM and 283 nM and 285 nM.

Take B7: the Kd was 14.1 nM and 23.5 nM and 22.7 nM.

For the molecule B8, the Kd was 8.49 nM and 8.53 nM and 8.35 nM.

Consider B9, for which the dissociation constant (Kd) is 0.651 nM and 0.847 nM and 0.833 nM.

As for B10, the dissociation constant Kd is 449 nM and 342 nM and 338 nM.

Consider B11, for which the Kd is 0.259 nM and 0.49 nM and 0.489 nM.

Consider B12, for which the Kd was 0.175 nM and 0.285 nM and 0.27 nM.

Consider B13, for which the Kd was 53.8 nM and 54.2 nM and 56.7 nM.
